Patent publication US20210155689A1 (SHANGHAI PHARMAEXPLORER, published 2021)

Tests used:
[1] = biological target: T1, monkey LAG-3 on cells (HEK293-cLAG-3 stable cell line) (monkey, UniProt P18627 24-525 (human entry)); experiment: FACS, HEK293-cLAG-3, antibody 8.000 nM
T1 construct: Full-length monkey (Chinese monkey) LAG-3 gene expressed on HEK293 cells
T1 chain: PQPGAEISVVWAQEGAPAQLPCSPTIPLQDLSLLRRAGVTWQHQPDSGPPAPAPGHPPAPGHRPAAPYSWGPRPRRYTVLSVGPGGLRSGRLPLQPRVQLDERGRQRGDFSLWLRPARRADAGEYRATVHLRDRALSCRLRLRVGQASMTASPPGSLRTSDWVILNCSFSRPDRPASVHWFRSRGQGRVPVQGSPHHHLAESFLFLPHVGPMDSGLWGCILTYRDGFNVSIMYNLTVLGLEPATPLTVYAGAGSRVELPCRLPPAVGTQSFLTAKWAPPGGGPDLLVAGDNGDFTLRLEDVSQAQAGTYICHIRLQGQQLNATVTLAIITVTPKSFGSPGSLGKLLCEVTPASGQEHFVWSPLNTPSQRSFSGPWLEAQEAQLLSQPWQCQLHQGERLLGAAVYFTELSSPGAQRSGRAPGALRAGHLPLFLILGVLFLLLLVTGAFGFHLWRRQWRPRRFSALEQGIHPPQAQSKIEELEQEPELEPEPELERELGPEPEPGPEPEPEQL
Description: (§1) The pIRES plasmid with the monkey-derived full-length gene was transfected into the HEK293 cell line to construct a HEK293 stable cell line containing monkey LAG-3 (herein referred to as HEK293-cLAG-3 stable cell line). The HEK293-hLAG-3 stable cell line and HEK293-cLAG-3 stable cell line were expanded in a T-75 cell culture flask to a 90% confluence. The medium was aspirated, and the cells were washed with HBSS (Hanks' Balanced Salt Solution) 1-2 times, then treated with a enzyme-free cell dissociation fluid (Versene solution: Life technology) and the cells were collected. The cells were washed with HBSS buffer for 1-2 times. After counted, the cells were diluted with HBSS to 1-2×10⁶ cells per ml, added with 1% goat serum blocking solution, incubated on ice for 20-30 minutes, and then washed with HBSS for 2 times by centrifugation. The collected cells were suspended in the FACS buffer (HBSS+1% BSA) to 2×10⁶ cells/ml, added as 100 microliters per well to a 96-well FACS reaction plate, added with 100 microliters per well of the antibody sample to be tested, incubated on ice for 1-2 hours. The plate was washed twice with the FACS buffer by centrifugation, added with 100 microliters of fluorescent (Alexa 488)-labeled secondary antibodies per well, and incubated on ice for 0.5-1.0 hours. The plate was washed 2-3 times with FACS buffer by centrifugation, added with 100 μl fixative solution (4% Paraformaldehyde) per well to suspend the cells. 5-10 minutes later, it was washed 1-2 times with FACS buffer by centrifugation. The cells were suspended with 100 microliters of FACS buffer, FACS (FACSCalibur, BD) was used for detection and the results were analyzed.

[2] = biological target: T2, hFc tagged monkey LAG-3 protein (cLAG-3-hFc protein) (monkey; human); experiment: ELISA, cLAG-3-hFc coated; 0.0007 nM
T2 construct: Made in HEK293 cells; also called monkey LAG-3 extracellular domain protein; not shown: human IgG Fc fragment (hFc) of the pCpC vector
T2 chain: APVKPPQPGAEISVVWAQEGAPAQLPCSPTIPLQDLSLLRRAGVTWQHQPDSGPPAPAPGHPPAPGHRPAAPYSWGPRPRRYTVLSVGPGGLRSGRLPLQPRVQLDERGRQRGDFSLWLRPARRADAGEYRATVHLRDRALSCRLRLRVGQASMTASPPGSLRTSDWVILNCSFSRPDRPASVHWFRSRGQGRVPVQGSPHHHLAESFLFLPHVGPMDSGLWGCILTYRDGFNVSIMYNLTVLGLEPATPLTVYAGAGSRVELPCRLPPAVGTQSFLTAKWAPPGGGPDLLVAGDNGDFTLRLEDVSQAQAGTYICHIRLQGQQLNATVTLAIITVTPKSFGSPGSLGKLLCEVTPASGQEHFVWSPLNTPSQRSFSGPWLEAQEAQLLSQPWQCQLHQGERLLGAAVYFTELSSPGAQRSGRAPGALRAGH
Protocol: (§2) The plate was sealed with plastic film and incubated overnight at 4° C. The plate was washed 2 times with the plate washing solution (PBS+0.01% Tween20) on the next day, and added with the blocking solution (PBS+0.01% Tween20+1% BSA) and blocked at room temperature for 1-2 hours. The blocking solution was poured out, and the plate was added with 50-100 μl of the antibody sample to be tested to each well, incubated at 37° C. for 1-2 hours, and washed 2-3 times with a plate washing solution (PBS+0.01% Tween20). HRP (horseradish peroxidase) labeled secondary antibody was added, and the plate was incubated at 37° C. for 1-2 hours, and washed 2-3 times with a plate washing solution (PBS+0.01% Tween20). 100 μl of TMB substrate was added to each well. After incubated at room temperature for 15-30 minutes, the plate was added with 100 μl of stop solution (1.0N HCl) to each well.

[3] = biological target: T2, hFc tagged monkey LAG-3 protein …; experiment: ELISA, cLAG-3-hFc coated; 6.6667 nM
Protocol: as §2

[4] = biological target: T3, human LAG-3 (full length, on the cell surface) (human, UniProt P18627 23-525); experiment: FACS, HEK293-hLAG-3; 200.000 nM
T3 construct: Full-length human LAG-3 expressed on cells; also called HEK293-hLAG-3; HEK293 cells transfected with LAG-3 gene
T3 sequence: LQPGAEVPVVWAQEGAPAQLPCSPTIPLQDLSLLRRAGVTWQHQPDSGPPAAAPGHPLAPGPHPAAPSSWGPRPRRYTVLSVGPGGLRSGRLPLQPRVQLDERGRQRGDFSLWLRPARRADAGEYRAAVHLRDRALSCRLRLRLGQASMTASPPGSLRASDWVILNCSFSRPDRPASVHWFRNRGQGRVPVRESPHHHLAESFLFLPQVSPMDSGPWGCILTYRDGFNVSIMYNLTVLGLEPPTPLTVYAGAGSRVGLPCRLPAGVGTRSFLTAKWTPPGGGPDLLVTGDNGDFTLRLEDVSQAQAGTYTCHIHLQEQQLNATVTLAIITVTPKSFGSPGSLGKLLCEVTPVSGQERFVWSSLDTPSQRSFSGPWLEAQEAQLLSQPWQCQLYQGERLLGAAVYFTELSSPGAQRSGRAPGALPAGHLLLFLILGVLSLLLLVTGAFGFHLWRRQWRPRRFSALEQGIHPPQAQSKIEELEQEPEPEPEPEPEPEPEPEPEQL
Description: as §1

Row | Binder | Mean fluorescence intensity [1] | OD450 [2] | OD450 [3] | Mean fluorescence intensity [4]
1 | 556F6B8 mouse-human chimeric antibody (antibody, V domains shown, also called mAb123-556F6B8; 556F8B8) VH: RVQLKQSGPGLVQPSQSLSITCTVSGFSLIKYGVHWVRQSPGEGLEWLGVIWRGGITDYNAAFMSRLSITKDNSKSQVFFKMNSLQADDTAIYYCAKWDGPLAMDYWGQGTSVTVSS VL: DIVMTQSHKFLSTSVGDRVSITCKASQDVGTTVAWYQQKPGQSPKLLIYWASTRHTGVPDRFTGSGSGTDFTLTISNVQSEDLADYFCQQYSSYPYTFGGGTKLEIK | 42.5 | – | – | –
2 | 556F6B8 (LAG-3 mouse-human chimeric antibody) (antibody, V domains shown, also called 556F8B8) VH: RVQLKQSGPGLVQPSQSLSITCTVSGFSLIKYGVHWVRQSPGEGLEWLGVIWRGGITDYNAAFMSRLSITKDNSKSQVFFKMNSLQADDTAIYYCAKWDGPLAMDYWGQGTSVTVSS VL: DIVMTQSHKFLSTSVGDRVSITCKASQDVGTTVAWYQQKPGQSPKLLIYWASTRHTGVPDRFTGSGSGTDFTLTISNVQSEDLADYFCQQYSSYPYTFGGGTKLEIK | – | 0.21 OD450 | 3.78 OD450 | –
3 | 556F6B8 (mouse antibody purified from hybridoma) (antibody, V domains shown, also called mAb123-556F6B8) VH: RVQLKQSGPGLVQPSQSLSITCTVSGFSLIKYGVHWVRQSPGEGLEWLGVIWRGGITDYNAAFMSRLSITKDNSKSQVFFKMNSLQADDTAIYYCAKWDGPLAMDYWGQGTSVTVSS VL: DIVMTQSHKFLSTSVGDRVSITCKASQDVGTTVAWYQQKPGQSPKLLIYWASTRHTGVPDRFTGSGSGTDFTLTISNVQSEDLADYFCQQYSSYPYTFGGGTKLEIK | – | – | – | 83.7 MFI
4 | 405B8H3 (mouse antibody purified from hybridoma) (antibody, V domains shown, also called mAb103-405B8H3; 405B81-13) VH: QVQLQQSGAELVRPGASVTLSCKASGYTFTDYEMHWVKQTPVHGLEWIGATDPETGNSAYNQKFKGKAIMTADKSSSTAYMELRSLTSEDSAVYYCISTGWNDWGQGTSLTVSS VL: DIKMTQSPSSMYASLGERVTITCKASQDINSYLSWFQQKPGKSPKTLIYRADRLLDGVPSRFSGSGSGQDYSLTISSLEYGDMGIYYCLQYDEFPYTFGGGTKLEIK | – | – | – | 324 MFI
5 | 105F1E10 (LAG-3 mouse-human chimeric antibody) (antibody, V domains shown) VH: EVQLQQSGPELVKPGASVKMSCRASGYTFTDFKMHWMKQSHGKSLEWIGYIAPNNGGTAYNQKFRGKATLTVNESSNTAYMELRSLTSEDSAVYYCVDWDDVDYWGQGTTLTVSS VL: DIKMTQSPSSMYASLGERVTITCKASQDINSYLSWFQQKSGKSPKTLIYRANRLVDGVPSRFSGSGSGQDYSLTISSLEYEDMGIYYCLQYVEFPLTFGAGTKLELK | – | 0.16 OD450 | 3.53 OD450 | –
6 | 105F1E10 mouse-human chimeric antibody (antibody, V domains shown, also called mAb009-105F1E10) VH: EVQLQQSGPELVKPGASVKMSCRASGYTFTDFKMHWMKQSHGKSLEWIGYIAPNNGGTAYNQKFRGKATLTVNESSNTAYMELRSLTSEDSAVYYCVDWDDVDYWGQGTTLTVSS VL: DIKMTQSPSSMYASLGERVTITCKASQDINSYLSWFQQKSGKSPKTLIYRANRLVDGVPSRFSGSGSGQDYSLTISSLEYEDMGIYYCLQYVEFPLTFGAGTKLELK | 37.9 | – | – | –
7 | 405B8H3 (LAG-3 mouse-human chimeric antibody) (antibody, V domains shown, also called mouse-human chimeric antibody 405B8H3) VH: QVQLQQSGAELVRPGASVTLSCKASGYTFTDYEMHWVKQTPVHGLEWIGATDPETGNSAYNQKFKGKAIMTADKSSSTAYMELRSLTSEDSAVYYCISTGWNDWGQGTSLTVSS VL: DIKMTQSPSSMYASLGERVTITCKASQDINSYLSWFQQKPGKSPKTLIYRADRLLDGVPSRFSGSGSGQDYSLTISSLEYGDMGIYYCLQYDEFPYTFGGGTKLEIK | – | 0.21 OD450 | 3.55 OD450 | –
8 | 105F1E10 (mouse antibody purified from hybridoma) (antibody, V domains shown, also called mAb009-105F1E10) VH: EVQLQQSGPELVKPGASVKMSCRASGYTFTDFKMHWMKQSHGKSLEWIGYIAPNNGGTAYNQKFRGKATLTVNESSNTAYMELRSLTSEDSAVYYCVDWDDVDYWGQGTTLTVSS VL: DIKMTQSPSSMYASLGERVTITCKASQDINSYLSWFQQKSGKSPKTLIYRANRLVDGVPSRFSGSGSGQDYSLTISSLEYEDMGIYYCLQYVEFPLTFGAGTKLELK | – | – | – | 330 MFI
9 | 409B11E12 (mouse antibody purified from hybridoma) (antibody, V domains shown, also called mAb104-409B11E12) VH: QVQLQQSGAELVRPGASVTLSCKASGYTFTDYEMHWVKQTTVHGLEWIGATDPETSYSAYNQKFKGKAILTADKSSSTAYMELRSLTSEDSAVYYCIATGWNDWGQGTSLTVSS VL: DLKMTQSPSSMYASLGERVTITCKASQDINSYLSWFQQKPGKSPKTLIYRANRLLDGVPSRFSGSGSGQDYSLTISSLEYEDMGIYYCLQYDEFPYTFGGGTKLEIK | – | – | – | 144 MFI
10 | 409D4E10 (mouse antibody purified from hybridoma) (antibody, V domains shown, also called mAb112-409D4E10) VH: QVQLQQSGAELVRPGASVTLSCKASGNTFTDYEMHWVKQTPVHGLEWIGATDPETDNTAYNQKFKGKAILTTDKSSSTAYMELRSLTSEDSAVYYCITSGWNDWGQGTSLTVSS VL: DIKMTQSPSSMYASLGERVTITCKASQDINSYLSWFQQKPGKSPKTLIYRANRLLDGVPSRFSGSGSGQDYSLTISSLEYEDMGIYYCLQYNEFPYTFGGGTKLEIK | – | – | – | 154 MFI
11 | 409D4E10 (LAG-3 mouse-human chimeric antibody) (antibody, V domains shown) VH: QVQLQQSGAELVRPGASVTLSCKASGNTFTDYEMHWVKQTPVHGLEWIGATDPETDNTAYNQKFKGKAILTTDKSSSTAYMELRSLTSEDSAVYYCITSGWNDWGQGTSLTVSS VL: DIKMTQSPSSMYASLGERVTITCKASQDINSYLSWFQQKPGKSPKTLIYRANRLLDGVPSRFSGSGSGQDYSLTISSLEYEDMGIYYCLQYNEFPYTFGGGTKLEIK | – | 0.27 OD450 | 3.79 OD450 | –
12 | 409B11E12 (LAG-3 mouse-human chimeric antibody) (antibody, V domains shown) VH: QVQLQQSGAELVRPGASVTLSCKASGYTFTDYEMHWVKQTTVHGLEWIGATDPETSYSAYNQKFKGKAILTADKSSSTAYMELRSLTSEDSAVYYCIATGWNDWGQGTSLTVSS VL: DLKMTQSPSSMYASLGERVTITCKASQDINSYLSWFQQKPGKSPKTLIYRANRLLDGVPSRFSGSGSGQDYSLTISSLEYEDMGIYYCLQYDEFPYTFGGGTKLEIK | – | 0.17 OD450 | 3.47 OD450 | –
